Reference: patent US20140378382A1

What was measured:
[1] = target: PTHR-1 (species and cells not stated for the assay) (Homo sapiens (Human)) (UniProt Q03431); test: cell-based or functional assay
[2] = target: parathyroid hormone receptor-2 (PTHR-2); test: cell-based or functional assay

Chain of PTHR-1 (species and cells not stated for the assay) (Homo sapiens (Human)) (Q03431 27-593 limits assumed, form in doubt): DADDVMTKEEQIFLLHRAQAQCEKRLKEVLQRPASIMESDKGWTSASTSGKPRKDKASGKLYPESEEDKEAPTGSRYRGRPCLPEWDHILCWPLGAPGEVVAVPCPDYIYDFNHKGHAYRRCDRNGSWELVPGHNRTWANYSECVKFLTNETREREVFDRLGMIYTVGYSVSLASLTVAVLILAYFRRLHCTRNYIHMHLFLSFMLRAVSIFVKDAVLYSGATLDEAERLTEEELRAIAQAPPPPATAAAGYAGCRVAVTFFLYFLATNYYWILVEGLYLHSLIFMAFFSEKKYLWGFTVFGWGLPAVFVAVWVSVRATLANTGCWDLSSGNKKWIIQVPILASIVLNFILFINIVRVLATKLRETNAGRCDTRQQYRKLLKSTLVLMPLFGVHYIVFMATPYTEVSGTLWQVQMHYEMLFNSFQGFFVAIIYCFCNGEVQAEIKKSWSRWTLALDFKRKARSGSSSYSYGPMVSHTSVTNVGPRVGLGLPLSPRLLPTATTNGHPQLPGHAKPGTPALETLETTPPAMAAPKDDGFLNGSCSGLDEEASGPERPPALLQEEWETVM

Substance | cAMP response PTH1R/PTH2R [1] | cAMP response PTH2R/PTH1R [2]
hPTHrP(1-36) (from UniProt P12272 37-72) (peptide) | 27 | 0.04
hTIP(1-39) (from UniProt Q96A98 62-100) (peptide) | 0.01 | 165
